The values that follow come from patent publication US20130035289A1 (UNIVERSITE DE LIEGE, published 2013).

Test [1] has as its target T1, Recombinant wild type human Plasminogen Activator Inhibitor type 1 (PAI-1) (human, UniProt P05121 24-402).
T1 construct: In the yeast two-hybrid confirmation full-length human PAI-1 was cloned in pGADT7 (GAL4 prey fusion); also called recombinant wt PAI-1; rPAI-1
Nature of the test: SPR (BIAcore 1000), PAI-1 immobilized on CM5 chip, 25 C.

For test [2], the target named is T2, urokinase-type plasminogen activator (uPA) (UniProt P00749 21-431, limits assumed). Nature of the test: immunoprecipitation with uPA without PAI-1, Western blot for 14K GH.
Test [3] has as its target T1, Recombinant wild type human Plasminogen …. The test is described as follows: SPR (BIAcore 1000), 16K hPRL immobilized on CM5 chip, 25 C. (SPR reads the build-up and loss of mass on a sensor chip optically.)
The target of test [4] is T2, urokinase-type plasminogen activator …. The test is described as follows: immunoprecipitation with uPA without PAI-1, Western blot for 16K PRL. On the technique in general: A western blot detects proteins with antibodies after separation by electrophoresis.
For the next test, the target named is T3, PAI-1/uPA complex (human, UniProt P05121 24-402; P00749 21-431, limits assumed).
T3 construct: For SPR formed by incubating PAI-1 (2 uM) and uPA (1.4 uM) for 10 min at 37 C before loading; also called uPA/PAI-1; uPA-PAI-1 complex
Nature of the test: SPR (BIAcore 1000), 16K hPRL immobilized on CM5 chip, PAI-1 pre-incubated with uPA, 25 C.

B1: Recombinant 14K N-terminal human growth hormone (14K hGH) (other)
chain: MFPTIPLSRLFDNAMLRAHRLHQLAFDTYQEFEEAYIPKEQKYSFLQNPQTSLSFSESIPTPSNREETQQKSNLELLRISLLLIQSWLEPVQFLRSVFANSLVYGASDSNVYDLLKDLEEGIQTLMGRLEDGSP
notes: Produced in E. coli as in WO 98/51323; it is tied to the 14-16 kD fragments in general, not to the tested batch; also called 14K GH; r14K GH
As usually defined, the Kd is the constant that tells how readily two partners part at equilibrium. Turning to B1, in test [1], the Kd worked out at 1000 nM. The binding result in test [2] is on record as “no binding”.

B2: Recombinant 16K N-terminal human prolactin (16K hPRL) (other, UniProt P01236 29-167, looked up)
chain: LPICPGGAARCQVTLRDLFDRAVVLSHYIHNLSSEMFSEFDKRYTHGRGFITKAINSCHTSSLATPEDKEQAQQMNQKDFLSLIVSILRSWNEPLYHLVTEVRGMQEAPEAILSKAVEIEEQTKRLLEGMELIVSQVHP
notes: domain: 16K N-terminal fragment; also called 16K PRL; 16K prolactin
Turning to B2, the Kd stood at 600 nM in test [1], 580 nM in test [3] and 150 nM with PAI-1/uPA complex. In addition, the binding result in test [4] is on record as “no binding”.
